Target: APOBEC3G, wild type (human), Q9HC16
Test: optical tweezers (single-molecule ssDNA extension); self-association of A3G bound to force-melted lambda-DNA (ssDNA) held at 80 pN; 10 to 200 nM A3G flowed in; 10 mM HEPES, 50 mM Na+, pH 7.5, 21 °C; two-exponential fit of incubation curves, k2 = rate of oligomer formation at saturating binding
Conditions: remark: other sources report otherwise

B1: APOBEC3G, wild type, Q9HC16 1-384 (enzyme)
chain: MKPHFRNTVERMYRDTFSYNFYNRPILSRRNTVWLCYEVKTKGPSRPPLDAKIFRGQVYSELKYHPEMRFFHWFSKWRKLHRDQEYEVTWYISWSPCTKCTRDMATFLAEDPKVTLTIFVARLYYFWDPDYQEALRSLCQKRDGPRATMKIMNYDEFQHCWSKFVYSQRELFEPWNNLPKYYILLHIMLGEILRHSMDPPTFTFNFNNEPWVRGRHETYLCYEVERMHNDTWVLLNQRRGFLCNQAPHKHGFLEGRHAELCFLDVIPFWKLDLDQDYRVTCFTSWSPCFSCAQEMAKFISKNKHVSLCIFTARIYDDQGRCQEGLRTLAEAGAKISIMTYSEFKHCWDTFVDHQGCPFQPWDGLDEHSQDLSGRLRAILQNQEN
- k2 (rate of oligomer formation on ssDNA): 0.007 s⁻¹
